Assay results taken from patent US20220195057A1 (LANOVA MEDICINES, published 2022).

How the values were obtained:
[1] = molecular target: T1, human chemokine (C-C motif) receptor 8 (CCR8) protein (human, UniProt P51685 1-355); experiment: cell-based or functional assay
[2] = molecular target: T1, human chemokine (C-C motif) receptor 8 …; experiment: flow cytometry, CCR8-expressing HEK293 cells
Procedure, shortened: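 Cell binding was measured by flow cytometry on HEK293 cells overexpressing human CCR8, alongside parental HEK293 cells. Antibodies were titrated from 200 nM in 4-fold dilutions over 12 points and incubated with the cells at 4° C for 60 minutes. Cells were washed twice with FACS buffer, stained with Alexa Fluor 647 goat anti-human IgG at 4° C for 60 minutes, washed twice and analysed. The read-out is binding EC50.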

[3] = molecular target: T1, human chemokine (C-C motif) receptor 8 …; experiment: flow cytometry, high-CCR8-expressing U2OS cells
Description: The cells used were U2OS (U2OS/H_CCR8).

[4] = molecular target: T1, human chemokine (C-C motif) receptor 8 …; experiment: flow cytometry, low-CCR8-expressing Jurkat cells
Description: The cells used were Jurkat engineering cells (Jurkat/H_CCR8).

[5] = molecular target: T1, human chemokine (C-C motif) receptor 8 …; experiment: cell binding, CCR8-expressing U2OS cells, curve fit; parameters: LogEC50: unit not given here
[6] = molecular target: T1, human chemokine (C-C motif) receptor 8 …; experiment: cell binding, CCR8-expressing CHO-K1 cells, curve fit; parameters: LogEC50: unit not given here

EC50 [2]: 1030 pM
EC50 [3]: 250 pM
EC50 [4]: 212 pM
Bottom [5]: 2060
LogEC50 [5]: -0.69
Span [5]: 30200
Top [5]: 32300
Bottom [6]: 4260
LogEC50 [6]: -0.684
Span [6]: 28900
Top [6]: 33200
B1: 137-H3L2 (LM-108) (antibody, V domains shown)
VH: EVQLVESGGGLVQPGGSLKLSCAASGFTFNTYAMNWVRQASGKGLEWVARIRSKANNYATYYADSVKDRFTISRDDSKNTLYLQMNNLKTEDTAVYYCVRDRSRGEDYAMDYWGQGTLVTVSS
VL: DIVMTQSPLSLPVTPGEPASISCRSSKSLLHSNANTYLYWFLQKPGQSPQLLIYRMSNLASGVPDRFSGSGSGTAFTLKISRVEAEDVGVYYCMQHLEYPFTFGQGTKLEIK
notes: Humanized 137D1H10; Detected with anti-human IgG
ADCC EC50 with primary human PBMCs (cytotoxicity detection) [1]: 2 pM
